T1: human CD30L expressed on cells (human, UniProt P32971 1-234)
T1 sequence (looked up): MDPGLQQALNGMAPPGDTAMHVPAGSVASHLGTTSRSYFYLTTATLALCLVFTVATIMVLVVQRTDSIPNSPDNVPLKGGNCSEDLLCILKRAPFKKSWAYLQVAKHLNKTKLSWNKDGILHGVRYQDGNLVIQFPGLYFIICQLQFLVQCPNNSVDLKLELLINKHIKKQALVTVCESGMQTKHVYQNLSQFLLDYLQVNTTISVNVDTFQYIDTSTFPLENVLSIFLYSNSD

T2: cynomolgus CD30L expressed on HEK293 cells (cynomolgus, UniProt A0A7N9CVX7 1-234)
T2 sequence: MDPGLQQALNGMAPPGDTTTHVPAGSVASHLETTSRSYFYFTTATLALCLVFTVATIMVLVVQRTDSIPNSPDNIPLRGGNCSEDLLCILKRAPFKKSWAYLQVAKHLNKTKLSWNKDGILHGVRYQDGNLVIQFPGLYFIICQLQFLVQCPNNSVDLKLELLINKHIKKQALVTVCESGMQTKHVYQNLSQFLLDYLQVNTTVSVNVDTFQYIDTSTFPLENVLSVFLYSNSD

T3: recombinant human CD30L protein (human, UniProt P32971 63-234)
T3 construct: also called rhCD30L; huCD30L (ELISA)
T3 sequence (looked up): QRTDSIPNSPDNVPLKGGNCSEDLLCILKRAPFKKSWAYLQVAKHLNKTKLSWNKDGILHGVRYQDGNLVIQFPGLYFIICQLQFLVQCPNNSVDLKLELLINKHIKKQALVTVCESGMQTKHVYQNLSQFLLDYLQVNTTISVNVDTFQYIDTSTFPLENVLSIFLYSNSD

T4: cynomolgus CD30L expressed on cells (cynomolgus, UniProt A0A7N9CVX7 1-234)
T4 construct: whole, on cells; also called cyCD30L; HEK293-cyCD30L
T4 sequence: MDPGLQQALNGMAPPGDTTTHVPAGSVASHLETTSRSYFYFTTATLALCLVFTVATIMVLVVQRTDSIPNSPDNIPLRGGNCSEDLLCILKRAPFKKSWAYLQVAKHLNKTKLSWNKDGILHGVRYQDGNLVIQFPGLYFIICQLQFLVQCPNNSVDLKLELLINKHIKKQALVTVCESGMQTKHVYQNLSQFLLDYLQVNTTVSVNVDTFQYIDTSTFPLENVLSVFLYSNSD

T5: human CD30L expressed on cells (human, UniProt P32971 1-234)
T5 construct: also called huCD30L; B16-huCD30L
T5 sequence: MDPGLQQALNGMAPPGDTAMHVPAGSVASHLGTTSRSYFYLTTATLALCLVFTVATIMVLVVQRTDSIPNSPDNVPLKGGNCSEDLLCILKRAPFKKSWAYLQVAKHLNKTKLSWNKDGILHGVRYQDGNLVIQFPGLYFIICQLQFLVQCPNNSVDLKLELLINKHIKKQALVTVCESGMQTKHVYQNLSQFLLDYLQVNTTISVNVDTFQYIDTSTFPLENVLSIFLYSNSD

T6: recombinant cynomolgus CD30L protein (cynomolgus, UniProt A0A7N9CVX7 63-234)
T6 construct: Recombinant protein used in ELISA; also called cyCD30L
T6 sequence: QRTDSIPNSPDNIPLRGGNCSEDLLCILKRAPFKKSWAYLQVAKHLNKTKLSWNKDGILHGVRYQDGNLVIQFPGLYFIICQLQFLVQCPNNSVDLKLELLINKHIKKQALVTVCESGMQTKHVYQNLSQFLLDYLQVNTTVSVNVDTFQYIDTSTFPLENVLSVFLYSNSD

T7: recombinant human CD30L protein (human, UniProt P32971 63-234)
T7 construct: Recombinant protein used in ELISA; also called huCD30L
T7 sequence (looked up): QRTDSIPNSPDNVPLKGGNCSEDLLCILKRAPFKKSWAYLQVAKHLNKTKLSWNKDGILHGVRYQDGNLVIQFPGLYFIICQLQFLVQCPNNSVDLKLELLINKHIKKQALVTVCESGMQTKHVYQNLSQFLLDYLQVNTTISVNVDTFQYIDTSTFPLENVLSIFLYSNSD


Tests used:
[1] = biological target: T1, human CD30L expressed on cells; test: cell-based or functional assay
[2] = biological target: T2, cynomolgus CD30L expressed on HEK293 …; test: cell-based or functional assay
[3] = biological target: T1, human CD30L expressed on cells; test: flow cytometry, B16-huCD30L cells
Experimental: Anti-CD30L antibody binding to a CD30L target was determined by flow cytometry, using B16 cells transfected to express human CD30L (compared to non-transfected B16), and using HEK293 cells transfected to express cynomolgus CD30L (compared to non-transfected HEK293). […] Cell surface bound antibodies were detected using a fluorescently labeled anti-human-IgG or anti-mouse IgG, depending on the Fc portion of the antibodies. After incubation with the secondary antibody, the cells were washed, fixed in a paraformaldehyde solution, and analyzed by flow cytometry to detect antibody binding.

[4] = biological target: T1, human CD30L expressed on cells; test: flow cytometry, blocking of huCD30 binding to B16-huCD30L cells
[5] = biological target: T3, recombinant human CD30L protein; test: ELISA, huCD30L, 1/50 dil
[6] = biological target: T3, recombinant human CD30L protein; test: ELISA, huCD30L, 1/500 dil
[7] = biological target: T3, recombinant human CD30L protein; test: ELISA, huCD30L, 1/5000 dil
[8] = biological target: T4, cynomolgus CD30L expressed on cells; test: flow cytometry, cyCD30L cells, 1/50 dil
[9] = biological target: T5, human CD30L expressed on cells; test: flow cytometry, huCD30L cells, 1/50 dil
[10] = biological target: T6, recombinant cynomolgus CD30L protein; test: ELISA, 1/50 dil
[11] = biological target: T6, recombinant cynomolgus CD30L protein; test: ELISA, 1/500 dil
[12] = biological target: T6, recombinant cynomolgus CD30L protein; test: ELISA, 1/5000 dil
[13] = biological target: T7, recombinant human CD30L protein; test: ELISA, CD30 competitor, undil
[14] = biological target: T7, recombinant human CD30L protein; test: ELISA, CD30 competitor, 1/10 dil
[15] = biological target: T7, recombinant human CD30L protein; test: ELISA, CD30 competitor, 1/100 dil
[16] = biological target: T7, recombinant human CD30L protein; test: ELISA, CD30 competitor, 1/1000 dil

Row | Binder | Inhibition of IL-8 release in a dual cell assay (B16-huCD30L cells + K299 cells) IC50 [1] | Inhibition of IL-8 release in a dual cell assay (HEK293-cyCD30L cells + K299 cells) IC50 [2] | EC50 [3] | IC50 [4] | OD [5] | OD [6] | OD [7] | MFI [8] | MFI [9] | further results
1 | Clone 1, Mouse IgG (antibody, V domains shown, Mouse IgG format) VH: QVQLQESGPGLVKPSETLSLTCTVSGGSISGYYWSWIRQPPVKGLEWIGYIFYSGYTKYNPSLKSRVTISVDTSKNQFSLKLSSVTAADTAVYYCARDRWDFDYWGQGALVTVSS VL: AIQMTQSPSYLSASVGDRVTIACRASQGIRNNLGWYQQKPGKAPKLLIYAESSLQSGVPSRFSGSGSGTDFTLTISSLQPEDFATYYCLQDFNYPYTFGQGTKLEIK | 1.99 nM | 0.55 nM | 1.95 nM | 3.06 nM | – | – | – | – | – | –
2 | Clone 3 (antibody, V domains shown, Hybridoma screening sample; also called CLONE_3 (parental)) VH: QVQLQESGPGLVKPSETLSLTCTVSGGSISGYYWSWIRQPPVKGLEWIGYIFYSGYTKYNPSLKSRVTISVDTSKNQFSLKLSSVTAADTAVYYCARDRWDFDYWGQGALVTVSS VL: not shown | – | – | – | – | – | – | – | – | – | Elisa Binding (OD) [10]: 3.2 OD; Elisa Binding (OD) [11]: 2.35 OD; Elisa Binding (OD) [12]: 0.552 OD; % inhibition [13]: 98%; % inhibition [14]: 95%; % inhibition [15]: 17%; % inhibition [16]: 3%
3 | Clone 1, Human IgG1 (antibody, V domains shown, Human IgG1 format) VH: QVQLQESGPGLVKPSETLSLTCTVSGGSISGYYWSWIRQPPVKGLEWIGYIFYSGYTKYNPSLKSRVTISVDTSKNQFSLKLSSVTAADTAVYYCARDRWDFDYWGQGALVTVSS VL: AIQMTQSPSYLSASVGDRVTIACRASQGIRNNLGWYQQKPGKAPKLLIYAESSLQSGVPSRFSGSGSGTDFTLTISSLQPEDFATYYCLQDFNYPYTFGQGTKLEIK | 1.1 nM | 0.22 nM | 1.41 nM | 1.35 nM | – | – | – | – | – | –

The next lines start with results.

Row | Inhibition of IL-8 release in a dual cell assay (B16-huCD30L cells + K299 cells) IC50 [1] | Inhibition of IL-8 release in a dual cell assay (HEK293-cyCD30L cells + K299 cells) IC50 [2] | EC50 [3] | IC50 [4] | OD [5] | OD [6] | OD [7] | MFI [8] | MFI [9] | Binder | further results
4 | – | – | – | – | 3.5 OD | 2.54 OD | 0.662 OD | 72.4 MFI | 153 MFI | anti-CD30L clone 3 (antibody, V domains shown) VH: QVQLQESGPGLVKPSETLSLTCTVSGGSISGYYWSWIRQPPVKGLEWIGYIFYSGYTKYNPSLKSRVTISVDTSKNQFSLKLSSVTAADTAVYYCARDRWDFDYWGQGALVTVSS VL: not shown | –
5 | – | – | – | – | 3.59 OD | 3.02 OD | 1.28 OD | 77.3 MFI | 208 MFI | anti-CD30L clone 1 (antibody, V domains shown, From mice with humanized immunoglobulin locus; elsewhere tested as mouse IgG and human IgG1; also called clone 1 parental) VH: QVQLQESGPGLVKPSETLSLTCTVSGGSISGYYWSWIRQPPVKGLEWIGYIFYSGYTKYNPSLKSRVTISVDTSKNQFSLKLSSVTAADTAVYYCARDRWDFDYWGQGALVTVSS VL: AIQMTQSPSYLSASVGDRVTIACRASQGIRNNLGWYQQKPGKAPKLLIYAESSLQSGVPSRFSGSGSGTDFTLTISSLQPEDFATYYCLQDFNYPYTFGQGTKLEIK | –
